The source of these data is patent publication US20110105397A1, “METHOD FOR TREATING HEART FAILURE WITH STRESSCOPIN-LIKE PEPTIDES” (priority 2009, published 2011).

To fix the notation:
T1: human corticotrophin releasing hormone receptor type 2 (CRHR2) (human, UniProt Q13324 1-411)
T1 sequence (looked up): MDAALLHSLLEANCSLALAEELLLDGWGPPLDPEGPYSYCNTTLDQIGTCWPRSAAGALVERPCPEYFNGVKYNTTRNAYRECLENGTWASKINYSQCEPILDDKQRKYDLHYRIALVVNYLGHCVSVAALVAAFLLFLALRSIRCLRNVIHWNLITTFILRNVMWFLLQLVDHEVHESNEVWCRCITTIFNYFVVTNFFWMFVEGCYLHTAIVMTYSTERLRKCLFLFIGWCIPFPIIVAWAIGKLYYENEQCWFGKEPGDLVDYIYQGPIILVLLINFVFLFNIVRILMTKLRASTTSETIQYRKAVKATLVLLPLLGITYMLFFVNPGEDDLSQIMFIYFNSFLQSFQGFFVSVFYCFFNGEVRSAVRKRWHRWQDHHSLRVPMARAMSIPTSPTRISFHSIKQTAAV

B1: Cys-variant of stresscopin peptide with N-Ethylsuccinimide (NES) reactive group SEQ ID NO: 43 (peptide)
peptide: TKFTLSLDVPTNIMNLLFNIAKAKNLRAQAAANAC(Succinimide(1-Et,3-yl))LMAQI-NH2
modifications: N-terminus assumed
SMILES: CC[C@H](C)[C@H](NC(=O)[C@H](CCC(N)=O)NC(=O)[C@H](C)NC(=O)[C@H](CCSC)NC(=O)[C@H](CC(C)C)NC(=O)[C@H](CSC1CC(=O)N(CC)C1=O)NC(=O)[C@H](C)NC(=O)[C@H](CC(N)=O)NC(=O)[C@H](C)NC(=O)[C@H](C)NC(=O)[C@H](C)NC(=O)[C@H](CCC(N)=O)NC(=O)[C@H](C)NC(=O)[C@H](CCCNC(=N)N)NC(=O)[C@H](CC(C)C)NC(=O)[C@H](CC(N)=O)NC(=O)[C@H](CCCCN)NC(=O)[C@H](C)NC(=O)[C@H](CCCCN)NC(=O)[C@H](C)NC(=O)[C@@H](NC(=O)[C@H](CC(N)=O)NC(=O)[C@H](Cc1ccccc1)NC(=O)[C@H](CC(C)C)NC(=O)[C@H](CC(C)C)NC(=O)[C@H](CC(N)=O)NC(=O)[C@H](CCSC)NC(=O)[C@@H](NC(=O)[C@H](CC(N)=O)NC(=O)[C@@H](NC(=O)[C@@H]1CCCN1C(=O)[C@@H](NC(=O)[C@H](CC(=O)O)NC(=O)[C@H](CC(C)C)NC(=O)[C@H](CO)NC(=O)[C@H](CC(C)C)NC(=O)[C@@H](NC(=O)[C@H](Cc1ccccc1)NC(=O)[C@H](CCCCN)NC(=O)[C@@H](N)[C@@H](C)O)[C@@H](C)O)C(C)C)[C@@H](C)O)[C@@H](C)CC)[C@@H](C)CC)C(N)=O
B2: Cys-variant of stresscopin peptide with N-Ethylsuccinimide (NES) reactive group SEQ ID NO: 44 (peptide)
peptide: TKFTLSLDVPTNIMNLLFNIAKAKNLRAQAAAC(Succinimide(1-Et,3-yl))AHLMAQI-NH2
modifications: N-terminus assumed
SMILES: CC[C@H](C)[C@H](NC(=O)[C@H](CCC(N)=O)NC(=O)[C@H](C)NC(=O)[C@H](CCSC)NC(=O)[C@H](CC(C)C)NC(=O)[C@H](Cc1c[nH]cn1)NC(=O)[C@H](C)NC(=O)[C@H](CSC1CC(=O)N(CC)C1=O)NC(=O)[C@H](C)NC(=O)[C@H](C)NC(=O)[C@H](C)NC(=O)[C@H](CCC(N)=O)NC(=O)[C@H](C)NC(=O)[C@H](CCCNC(=N)N)NC(=O)[C@H](CC(C)C)NC(=O)[C@H](CC(N)=O)NC(=O)[C@H](CCCCN)NC(=O)[C@H](C)NC(=O)[C@H](CCCCN)NC(=O)[C@H](C)NC(=O)[C@@H](NC(=O)[C@H](CC(N)=O)NC(=O)[C@H](Cc1ccccc1)NC(=O)[C@H](CC(C)C)NC(=O)[C@H](CC(C)C)NC(=O)[C@H](CC(N)=O)NC(=O)[C@H](CCSC)NC(=O)[C@@H](NC(=O)[C@H](CC(N)=O)NC(=O)[C@@H](NC(=O)[C@@H]1CCCN1C(=O)[C@@H](NC(=O)[C@H](CC(=O)O)NC(=O)[C@H](CC(C)C)NC(=O)[C@H](CO)NC(=O)[C@H](CC(C)C)NC(=O)[C@@H](NC(=O)[C@H](Cc1ccccc1)NC(=O)[C@H](CCCCN)NC(=O)[C@@H](N)[C@@H](C)O)[C@@H](C)O)C(C)C)[C@@H](C)O)[C@@H](C)CC)[C@@H](C)CC)C(N)=O
B3: Cys-variant of stresscopin peptide with N-Ethylsuccinimide (NES) reactive group SEQ ID NO: 42 (peptide)
peptide: TKFTLSLDVPTNIMNLLFNIAKAKNLRAQAAANAHLMAQC(Succinimide(1-Et,3-yl))-NH2
modifications: N-terminus assumed
SMILES: CC[C@H](C)[C@H](NC(=O)[C@H](CC(N)=O)NC(=O)[C@H](Cc1ccccc1)NC(=O)[C@H](CC(C)C)NC(=O)[C@H](CC(C)C)NC(=O)[C@H](CC(N)=O)NC(=O)[C@H](CCSC)NC(=O)[C@@H](NC(=O)[C@H](CC(N)=O)NC(=O)[C@@H](NC(=O)[C@@H]1CCCN1C(=O)[C@@H](NC(=O)[C@H](CC(=O)O)NC(=O)[C@H](CC(C)C)NC(=O)[C@H](CO)NC(=O)[C@H](CC(C)C)NC(=O)[C@@H](NC(=O)[C@H](Cc1ccccc1)NC(=O)[C@H](CCCCN)NC(=O)[C@@H](N)[C@@H](C)O)[C@@H](C)O)C(C)C)[C@@H](C)O)[C@@H](C)CC)C(=O)N[C@@H](C)C(=O)N[C@@H](CCCCN)C(=O)N[C@@H](C)C(=O)N[C@@H](CCCCN)C(=O)N[C@@H](CC(N)=O)C(=O)N[C@@H](CC(C)C)C(=O)N[C@@H](CCCNC(=N)N)C(=O)N[C@@H](C)C(=O)N[C@@H](CCC(N)=O)C(=O)N[C@@H](C)C(=O)N[C@@H](C)C(=O)N[C@@H](C)C(=O)N[C@@H](CC(N)=O)C(=O)N[C@@H](C)C(=O)N[C@@H](Cc1c[nH]cn1)C(=O)N[C@@H](CC(C)C)C(=O)N[C@@H](CCSC)C(=O)N[C@@H](C)C(=O)N[C@@H](CCC(N)=O)C(=O)N[C@@H](CSC1CC(=O)N(CC)C1=O)C(N)=O
B4: Cys-variant of stresscopin peptide with N-Ethylsuccinimide (NES) reactive group SEQ ID NO: 45 (peptide)
peptide: TKFTLSLDVPTNIMNLLFNIAKAKNLRAQAAC(Succinimide(1-Et,3-yl))NAHLMAQI-NH2
modifications: N-terminus assumed
SMILES: CC[C@H](C)[C@H](NC(=O)[C@H](CCC(N)=O)NC(=O)[C@H](C)NC(=O)[C@H](CCSC)NC(=O)[C@H](CC(C)C)NC(=O)[C@H](Cc1c[nH]cn1)NC(=O)[C@H](C)NC(=O)[C@H](CC(N)=O)NC(=O)[C@H](CSC1CC(=O)N(CC)C1=O)NC(=O)[C@H](C)NC(=O)[C@H](C)NC(=O)[C@H](CCC(N)=O)NC(=O)[C@H](C)NC(=O)[C@H](CCCNC(=N)N)NC(=O)[C@H](CC(C)C)NC(=O)[C@H](CC(N)=O)NC(=O)[C@H](CCCCN)NC(=O)[C@H](C)NC(=O)[C@H](CCCCN)NC(=O)[C@H](C)NC(=O)[C@@H](NC(=O)[C@H](CC(N)=O)NC(=O)[C@H](Cc1ccccc1)NC(=O)[C@H](CC(C)C)NC(=O)[C@H](CC(C)C)NC(=O)[C@H](CC(N)=O)NC(=O)[C@H](CCSC)NC(=O)[C@@H](NC(=O)[C@H](CC(N)=O)NC(=O)[C@@H](NC(=O)[C@@H]1CCCN1C(=O)[C@@H](NC(=O)[C@H](CC(=O)O)NC(=O)[C@H](CC(C)C)NC(=O)[C@H](CO)NC(=O)[C@H](CC(C)C)NC(=O)[C@@H](NC(=O)[C@H](Cc1ccccc1)NC(=O)[C@H](CCCCN)NC(=O)[C@@H](N)[C@@H](C)O)[C@@H](C)O)C(C)C)[C@@H](C)O)[C@@H](C)CC)[C@@H](C)CC)C(N)=O
B5: Pegylated Cys-variant stresscopin-like peptide, NES-PEG MW20000 & DOUBLE-ENDED, SEQ ID NO: 98 (peptide)
peptide: TKFTLSLDVPTNIMNLLFNIAKAKNLRCQAAANAHLMAQI-NH2
modifications: not fully specified (residue 28); also: PEG with maleimide at both ends, peptide chains per PEG not given here

Where no end group is shown, it is not given here. The star is where a group is joined. Succinimide(1-Et,3-yl) = CCN1C(=O)CC(*)C1=O

The target of the assay is T1, human corticotrophin releasing hormone …. Nature of the assay: cell-based or functional assay.
For B1, the “Log DR” value was -0.32 log10 and the pA50 was 9.79 -log10(M).

Regarding TKFTLSLDVPTNIMNLLFNIAKAKNLRAQAAANAHLMAQC-NH2 [Cys-variant stresscopin-like peptide SEQ ID NO: 41], the “Log DR” value was determined as 2.07 log10 and the pA50 was 7.45 -log10(M).

Take B2: the “Log DR” value is about 1.97 log10 and the pA50 is ~7.5 -log10(M).

For the molecule TKFTLSLDVPTNIMNLLFNIAKAKNLRAQAAANAHLMACI-NH2 [Cys-variant stresscopin-like peptide SEQ ID NO: 40], the “Log DR” value came out at 0.55 log10 and the pA50 was 9.08 -log10(M).

B3: the “Log DR” value is about 1.72 log10 and the pA50 was ~7.75 -log10(M).

Take B4: the “Log DR” value is -0.01 log10 and the pA50 was 9.48 -log10(M).

Consider TKFTLSLDVPTNIMNLLFNIAKAKNLRAQAAANAHLMCQI (NES-PEG (about 20 kDa) on Cys 38; C-terminal amide (-NH2)) [Pegylated Cys-variant stresscopin-like peptide with NES linker and PEG about 20 kDa SEQ ID NO: 92], for which the “Log DR” value came out at 1.55 log10 and the pA50 was 8.12 -log10(M).

As for TKFTLSLDVPTNIMNLLFNIAKAKNLRAQAAANAHLMAQC (NES-PEG (about 20 kDa) on Cys 40; C-terminal amide (-NH2)) [Pegylated Cys-variant stresscopin-like peptide with NES linker and PEG about 20 kDa SEQ ID NO: 94], the “Log DR” value is over 2.39 log10 and the pA50 is ~7 -log10(M).

Take TKFTLSLDVPTNIMNLLFNIAKAKNLRCQAAANAHLMAQI (NES-PEG MW2000 on Cys 28; C-terminal amide (-NH2)) [Pegylated Cys-variant stresscopin-like peptide, NES-PEG MW2000, SEQ ID NO: 95]: the “Log DR” value is 0.43 log10 and the pA50 was 9.31 -log10(M).

Take TKFTLSLDVPTNIMNLLFNIAKAKNLRCQAAANAHLMAQI (NES-PEG MW12000 on Cys 28; C-terminal amide (-NH2)) [Pegylated Cys-variant stresscopin-like peptide, NES-PEG MW12000, SEQ ID NO: 97]: the “Log DR” value is about 0.74 log10 and the pA50 was ~9 -log10(M).

On to TKFTLSLDVPTNIMNLLFNIAKAKNLRCQAAANAHLMAQI (NES-PEG MW30000 on Cys 28; C-terminal amide (-NH2)) [Pegylated Cys-variant stresscopin-like peptide, NES-PEG MW30000, SEQ ID NO: 99], for which the “Log DR” value was 0.8 log10 and the pA50 was 8.94 -log10(M).

In the case of TKFTLSLDVPTNIMNLLFNIAKAKNLRCQAAANAHLMAQI (NES-PEG MW5000 on Cys 28; C-terminal amide (-NH2)) [Pegylated Cys-variant stresscopin-like peptide, NES-PEG MW5000, SEQ ID NO: 96], the “Log DR” value amounted to 1 log10 and the pA50 is 8.74 -log10(M).

As for TKFTLSLDVPTNIMNLLFNIAKAKNLRAQAAANAHLMACI (NES-PEG (about 20 kDa) on Cys 39; C-terminal amide (-NH2)) [Pegylated Cys-variant stresscopin-like peptide with NES linker and PEG about 20 kDa SEQ ID NO: 93], the “Log DR” value worked out at 1.47 log10 and the pA50 is 8.2 -log10(M).

Consider B5, for which the “Log DR” value amounted to 0.18 log10 and the pA50 was 9.5 -log10(M).
